Assay results published in the supplement of paper PMC12764529.
± gives the half width of the 95% confidence interval.

Legend:
[1] = folding stability dG unfold from chymotrypsin proteolysis; higher = more stable
How it was run: (§1)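 Mini-proteins designed to be under 80 residues and free of cysteine were carried in a PA-tagged cDNA display construct and digested with trypsin and with chymotrypsin. Each protease was applied at 11 threefold-diluted concentrations, alongside a no-protease condition, before sequencing. K50 came from Bayesian fitting of the sequencing counts, and unfolding free energy was obtained by comparing it with a sequence-predicted unfolded-state K50 and a shared folded-state K50, for each protease separately or for both together. Designs were retained only if their AlphaFold2 dimer inter-PAE exceeded 15.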

[2] = folding stability dG unfold (combined trypsin and chymotrypsin); higher = more stable
How it was run: as §1

[3] = folding stability dG unfold from trypsin proteolysis; higher = more stable
How it was run: as §1

| Sequence | folding stability dG unfold [1] [kcal/mol] | folding stability dG unfold [2] [kcal/mol] | folding stability dG unfold [3] [kcal/mol] |
| --- | --- | --- | --- |
| SAPVIEITEVTFNPDGSVEVTLVIPFPDDPEIPPEEIAKAIKEAFGFEEVTVEPIPETGAWRITLRAPGSAG [r14_228_TrMRF] | 4.18 ± 0.089 | 4.07 ± 0.12 | 3.4 ± 0.14 |
| SAGGNLMIRVELYRPKPDPEGEWQKREVTLPMPPGEPIEELIDELRPPGWVIEIDIFDNGKPIREYYIRSAG [r5_278_TrROS] | 2.86 ± 0.14 | 2.34 ± 0.35 | 1.76 ± 0.12 |
| SGKKKIKIYVESIEVFEDGVVKIKVKAIFPDGSEEDVIAEIRVEPDEDGRPHLLVVIRIGDKDFLLVLDASA [r9_271_TrMRF] | 3.15 ± 0.059 | 2.96 ± 0.17 | 2.81 ± 0.11 |
| SAGMKPPKIEITIEVVEKDGELYVRVKIKLENGEEIEIVMSLDEVKELLKKLFPEITEIEVEEVRLPPKSAG [r5_25_TrROS_Hall] | 4.09 ± 0.18 | 3.74 ± 0.5 | 2.39 ± 0.12 |
| SASLEEILASLGYSVSRSVLPNGTEVVTARHPDGTTVTVTVTPDGTTVTVTPPDGTVTTLSVEDVRRALSAG [r14_578_JUSTAS] | 3.118 ± 0.017 | 3.03 ± 0.05 | 2.97 ± 0.045 |
| SAGGSAGGSATATVTPHEGAWTVTVTGPDSTETFTFEADEETVREFVELLKAPDVDIDPVPGSAGGSAGGSA [r18_103_TrMRF] | 1.12 ± 0.096 | 1.46 ± 0.086 | 1.79 ± 0.07 |
| SAGGSAGGSAEVEIEFVSYDPSTGRLVRKRVKLKLLPDPKGGPVEVVEVEVDPGGPVPAGASAGGSAGGSAG [r3_397_TrMRF] | 2.08 ± 0.046 | 2.11 ± 0.12 | 1.91 ± 0.053 |
| SAGGGIAEILEIREFEDGVEILILTDDLDDPEIIEELIDEIAEELGLPKEKIRAHIIPADIPPLPDEESAGG [r13_430_TrMRF] | 1.18 ± 0.1 | 1.04 ± 0.24 | 1.22 ± 0.061 |
| SAGGSVPERAKVVTLVLRFEEPESLGIPLLERLLRELGFPDAVLGEVRIEPLPDGSVVAVVPLLVPSAGGSA [r2_346_TrMRF] | 3.196 ± 0.02 | 2.91 ± 0.059 | 2.42 ± 0.041 |
| SAGGSAGGMTFTFPPGARVRIAIYNKNGELIEEREIDEPGAKITIEKDEETGEWRIVSIELLEPSAGGSAGG [r6_523_TrROS_Hall] | 3.76 ± 0.05 | 3.45 ± 0.18 | 3.12 ± 0.084 |
| SAGGMKSETIPLTTPEGVPFEVTITTENGKVTVTITPLDPSAPEEVVEAVRAAVEARAAAAGKTVTLVSAGG [r13_774_JUSTAS] | 1.37 ± 0.04 | 1.42 ± 0.07 | 1.47 ± 0.046 |
| SAGGMKLTVEIEYDEETEEVTIRIRNEETGEEIEITLSKEEVEKLLEALEKNPEKSIEEALLEALKESAGGS [r8_484_TrROS_Hall] | 2.33 ± 0.11 | 2.43 ± 0.25 | 2.58 ± 0.23 |
| SPIRIRIWNPKNNVPIDEIDIQPNEDGNYGIKIKFWMPGKQHEHTIPIPPGETADEFINDHGIRSIEIEPSA [r9_492_TrROS] | 1.01 ± 0.11 | 0.7 ± 0.086 | 0.13 ± 0.085 |
| SAGGSAGLEGVAKAILDKLPPNRKIAAFTVNEEEAKTATFTTPDGNEINITAAGDKIASIDIIDAESAGGSA [r15_175_TrMRF] | 0.429 ± 0.19 | 0.0224 ± 0.1 | -1.09 ± 0.51 |
| SAGGSAGGSFKDVPPGLKPLREEENVLFYQLPDGSYLVLVKEGDKIKKIKASKSTSIEEAIKKSAGGSAGGS [r12_605_JUSTAS] | 2.09 ± 0.041 | 1.61 ± 0.16 | 0.44 ± 0.11 |
| SASPDAPVEVVVSLRELRERIEAEHPGRPVTPEDVAALAREELEAAGRPLEDLRVEAVDEATGTVRLVASAG [r14_303_JUSTAS] | 1.29 ± 0.019 | 0.907 ± 0.035 | -0.251 ± 0.054 |
| SAGGSAGGMIREIEVKVSPEFPSVEEVVEELKAKGYEVKRIEEDPETDEVIVYVVKKVPEEEHHSAGGSAGG [r6_604_JUSTAS] | 1.04 ± 0.17 | 1.08 ± 0.12 | 1.05 ± 0.068 |
| SAGGSAGGSAGGGSVTIEIEFEAKPGEKFTVTIKGFKKVEITEIYPFDGKVRIKVKVTPESAGGSAGGSAGG [r7_292_TrMRF] | 3.88 ± 0.13 | 3.67 ± 0.13 | 3.18 ± 0.13 |
| SAGGSAGVLEAVVFNPETGTFSVIPAAVLEKAFAANPADTELTFTLKDKPVKVFVFPGPGLAVVTGSAGGSA [r15_350_TrMRF] | 1.56 ± 0.061 | 1.45 ± 0.053 | 1.14 ± 0.018 |
| SMTVTTDPSSLTFTLPPTYTSVEQAREALEELGFKLPSSVKSITIESVDEGKNLNTITVTFDDPEALKKLSA [r9_820_JUSTAS] | 0.922 ± 0.089 | 0.913 ± 0.082 | 0.74 ± 0.03 |
| SAGGVVYYATFTIYDPKRKLPNGELAYEETPIYKKFDPKEIEKFIKELKDKLKKEGRKIKAEITKVLSAGGS [r8_10_JUSTAS] | 1.77 ± 0.29 | 1.45 ± 0.4 | 1.28 ± 0.15 |

| Sequence | folding stability dG unfold [1] [kcal/mol] | folding stability dG unfold [2] [kcal/mol] | folding stability dG unfold [3] [kcal/mol] |
| --- | --- | --- | --- |
| SAGGSAGGSAGGSKKKIKIYIENENGEKKTIEIEVEGDIDEIAKELAKKYNVKIVKIEPSAGGSAGGSAGGS [r4_412_TrROS_Hall] | 3.16 ± 0.081 | 3.05 ± 0.05 | 2.77 ± 0.11 |
| SAGGPYEFWFTITIDYPDLTPKQAVEEARKILRKLGFEITDIPVQVDPDPGWITVMARITIRPPEDASAGGS [r16_287_TrROS] | 3.98 ± 0.044 | 3.58 ± 0.16 | 3.31 ± 0.063 |
| SAGGSAPKEGTIWIMIPVRYERDPNGKVKPISAEQIADLFQELGFPIKIDEIFDSPGYIMIRIKVKSAGGSA [r15_225_TrROS] | 3.204 ± 0.032 | 3.04 ± 0.16 | 2.5 ± 0.075 |
| SAGGSAGGSAPDNVEIEVYELPAGMYRVKIWPPGGNRHEFNFPPGEPKKIKIPPGVSIEIWPFSAGGSAGGS [r12_517_TrROS] | 0.763 ± 0.29 | 0.743 ± 0.22 | 0.462 ± 0.15 |
| SAGPGAELVAEFEVELGDRGARIRIYRAPDFLIIRVDYPDGTVPVFRIDPRTGRIVEVRTFRVRPDLPLSAG [r14_676_TrMRF] | 1.91 ± 0.098 | 2.28 ± 0.11 | 2.56 ± 0.045 |
| SAGGSAGGSAGGYLEAPIVIKIEFQIYDPDDGDPIATYEHTIMIPIEIELPPPPDPDNDSAGGSAGGSAGGS [r10_50_TrROS] | 2.28 ± 0.17 | 2.18 ± 0.23 | 1.97 ± 0.21 |
| SAGGSAGGSASLSPEKKVTIKTTVPQPTPPAVTTTLTGQFPSSLTLEELAEKDPNATVSITGSAGGSAGGSA [r18_279_JUSTAS] | 1.36 ± 0.014 | 1.04 ± 0.055 | 0.221 ± 0.059 |
| SAGGSAGGSAGGRFEVLGVEPLPGNWVRVRVRYPGLGREATFLVRVSSLPLPPVDLDRFDSAGGSAGGSAGG [r11_986_TrMRF] | 3.11 ± 0.046 | 2.71 ± 0.083 | 1.82 ± 0.037 |
| SAGGSAGGSAAKPIPFTITSVSVPTAPDGKKYAVVEISFPGSGAKAWAVYDIDDPYIKEAGSAGGSAGGSAG [r3_57_TrMRF] | 1.71 ± 0.15 | 1.37 ± 0.1 | 0.804 ± 0.095 |
| SAKMVVLKAYFKGDGDEIKEIADAIDFPYTIEKIPDYPDYYIATFVFPTEEKAPEWEKALKEKGYIVEGSAG [r14_745_TrMRF] | 2.48 ± 0.037 | 2.25 ± 0.049 | 1.88 ± 0.04 |
| SAGGSAGGSAGLAEKLRDEIRESIKGPDGLEVPDDVELLSIDVPEDSAFVEVRFPADLPVSAGGSAGGSAGG [r17_519_TrMRF] | 0.233 ± 0.02 | 0.363 ± 0.089 | 0.436 ± 0.025 |
| SAGGKPNWVWFKITINVTPEQLENMTLDEIADRVIDELMKLGFPIKKIEIDEIQWDGDRVTIYIRIRVSAGG [r13_432_TrROS] | 4.59 ± 0.099 | 4.35 ± 0.14 | 4.18 ± 0.16 |
| SAGGSKYPIEVTDPENGNPVLLEDVESLASVTQEEPGDGRSLYTATVPETGEPVFLTSPEKLAAALSSAGGS [r8_206_JUSTAS] | 0.0753 ± 0.19 | 0.384 ± 0.11 | 0.593 ± 0.035 |
| SAGMVRIETYTHPDGTLRLVVYRPETGERAVFEFPLEDPEKFREAVEELAERLREEGFPVEVDIRPTLPSAG [r5_815_TrMRF] | 4.296 ± 0.023 | 3.97 ± 0.049 | 3 ± 0.086 |
| SAGGSAGGSAGGEIKVEVVPVDGKLRVKVTLEDGEKIEIEVPENTTLDELKKLAEELAKKSAGGSAGGSAGG [r7_265_TrROS_Hall] | 2.12 ± 0.077 | 1.94 ± 0.11 | 1.55 ± 0.083 |
| SAGGEEIEAEVVEVRTFTLENGFEVTTTLIRVDGKLILITSVKKTKNGKWEVVEVKELPLEELSPEELSAGG [r13_494_TrROS_Hall] | 2.73 ± 0.035 | 2.93 ± 0.14 | 3.35 ± 0.14 |
| SAGGSAGGSMKLVTVKMKRPNGPVELTPVLPVDPSETLEEVKERVLELYPGAEITEITVTPDESAGGSAGGS [r12_738_JUSTAS] | 0.708 ± 0.15 | 0.457 ± 0.15 | -0.358 ± 0.11 |
| SAGGSAGGSAKVYVNPDNNKVAVVLPPPGDSYLVLLFDPETGEVRLIEAPPEEVEELLKKGSAGGSAGGSAG [r3_162_TrMRF] | 1.25 ± 0.097 | 0.845 ± 0.14 | 0.618 ± 0.077 |
| SPEIKIELVYDEETEELYLEIEIRFPESEEEAIEALKKLLEELGFEVVEIEEIEVEEDGTVRIRVRIRKKSA [r9_876_TrROS_Hall] | 4.47 ± 0.7 | > 6 | 4.87 ± 0.31 |
| SAGMDVKELAKEAMEKYPPGDKEIEFEIPVGPRPFKVKIDYEPDPENGKPRPKITIENPDNGKKTEFTFSAG [r5_236_TrROS] | 0.61 ± 0.19 | 0.11 ± 0.17 | -1.07 ± 0.74 |
| SSSSTLVSSYTLTLKDEKGNEITLKVDVYKFPSGSYRVEITRPDGTVTEYEFPASEPPTEEKIKELALKKSA [r9_616_JUSTAS] | 6.01 ± 0.13 | > 6 | 4.47 ± 0.46 |
